Assay: yeast display, Sf9 membrane polyspecificity reagent, FACS + sequencing; frameworks hold sequencing errors
In short: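 Galactose induction of a Saccharomyces cerevisiae BJ5465 synthetic nanobody display library ran 36–48 hours. The cells were then stained for 1 hour at 4 °C with 10% biotinylated, detergent-solubilized Sf9 membrane reagent, pulled down on streptavidin microbeads and FACS-sorted into low and high (top ~1%) gates on expression and reagent-binding fluorescence. Labels for polyreactivity follow the gate of origin.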

Sequence	polyreactivity (PSR sort gate)
QVQLVESGGGLVQAGGSLRLSCAASGRIFGRNTMGWYRQAAGKERELVASITFGGVSTYYADSVKGRFTISRDTEKNTVYLQMNSLKPEDTEVYYCAAVLINYEGYDSWGQGTQVTVSS	low polyreactivity
QVQLVESGGGLVQAGGRLRLSCAASGFTLWGYAMGWYRQAPGKERELVASMSWSGGGTNYADSVKGRFTISRDNAKNTVYLQMNSLKPEDPAVYYCAAQYYTVSRYYGVERKFGYWGQGSQVTVSS	high polyreactivity
QVQLEESGGGLVQAGGSLPLICAASGRIFATYAMGWYRQAPGKARELVAAISGRGSSTYYADSVKVRFTISRDNAKNTVYLQMNSLKPEDTAVSYCAAVVRHSFGYDSWGQCTQVTVSS	high polyreactivity
QVQLVESGGGLVQAGGSLRISCAASGRTFRVYSMGWYIQAPGKEWELVASISARSGSTYYADSVKGRFTISRDNAKNTVYLQLNSVKPEDTAVYYSAAARRGFKYDYWGQGTQVTVSS	high polyreactivity
QVQLQVSGGGLVQAGGSLRLSCAASGSIFLTSEMGWYRQAPGKERELVAAIATGTSTNYADSVKGRFTISRDNAKNTVYLQMNSLKPEDTAVYYCATYHYWGQGTQVTVSS	low polyreactivity
QVQLVESGGGLVQAGGSLRLSCAASGIIFVKNAMGWYRQAPGKERELVASISGSGGRTYYADSEKGRFTISRDNAKNTVYLQMNILKPEDTAVYYCNTLLAPHARKARRHDYWGQGTQVTVSS	low polyreactivity
QVQLVESGGGLVQAGGSLRLSCAASGFTFGYYAMGWYRQATGKERELVATITGSGVRTYYADSLKGRFTISRDNAKNSVYLQMNSLKPEDTAVYYCNKVFSIPWQGVRFDYWGQGTQVTVSS	high polyreactivity
QVQLVESGGGLVQAGVSLRLSCAASGRIKDNVMGWYRQAPGKERELVAAITRYAGRTYYAYSVKGRFTISRDNAKITVYLQMNSLKPVDTAVYYCAAQAERSGYEYWGLGTQVTVSS	low polyreactivity
QVQLVESGGGLVQAGGSLRLSCAASGGIFLVNDMGWYRQAPGKERELFAAITSGGGTYYADSVKGRFTISRDNAKNTVYLQMNSLKPEDTAVYYCARDTYRQIVSNESYGYWGQGTQVTVSS	low polyreactivity
QVQLVESVGGLVKAGGSLRLSCAASGSIFGTNAMGWYRQAPGKERELVAVISDGGSTYYADSVKGRFTISRENAKNTVYLQMNSLKPADTAVYYCNTPLESPFYSRVGTTESDHWGQGTQVTVSS	low polyreactivity
QVQLVESGGGLDQARGSLRLSCAASGLTFASNAMGWYRQAPGKERELVAAISWSDGSTYYADSVKGRFTISRDNAKNTVYLQMNSLKPEDTAVYYCAAEPPGFRTSRVGYWGQGTQVTVSS	low polyreactivity
QVQHVESVGGIVQAGGSLRLICAASGFIFVGYAMGWYRQAPGKERELVAAISTSGGRTYYADSVKGRFTISRDNAKNTVYLQLNSLKPEDTAVYYCAAKRPGCIQYSYYYWGQGTQVTVSS	high polyreactivity
QVQLVESGGGLVQAGGSLRLSCAATGRILYYYAMVWYRQAPGKEREVVAASTSGGSTYADSVKGRFTISRDNAKNTVYLQMNSQKPEDTAVYYCNADSTVYDTEYAYWGQGTQVTVSS	low polyreactivity
QVQLVESGGGLVQAGGSLRLSCAASGSIFKYNAMGWYRPAPGKERELVAAISWSGGSTRYADSLKGRFTISRDNATNTGYLQMNSLKPEDTAVYYCAAKHGRNYAANALYGYWGQGTQVTVSS	high polyreactivity
QVQLVESGGGLVQAGGSLRLSCAASGSTFYLYAMGWYRQAPGKEREFVAAISWSGGRTYYADSVKGRFTISRDNAKNTVYLQMNSLKPEDTAVYYCAARRRYTWQYTRYDMGYWGQGTQVTVSS	low polyreactivity
QVQLVESGGGLVQAGGSLRLSCAAYGSTFPSYAMGSNRQAPGKERELVAAISWTGGTTYFADSVKGRFTISRDNAKNTVYLQMNSLKPEDTAVYYCNAKDGGGSQDQAQKRPIIRFDYWGQGSQVTVSS	high polyreactivity
QVQLVESGGGLVQAGGSLRLSCAASGLTFPWYAMGWYRQAPGKERELVASINSSTGSTYYADSVKGRFTISRDNAKNTVYLQMNSLKPEDTAVYYCAAVEYGNMDWGQGTQVTVSS	low polyreactivity
QVQLLESGGGLVQAGGSLRLSCAASGLTFSSYTMGWYRQAPGKERELVAANTRRGTSTYYADSVKGRFTISRDNAKNTVYLQMNSLKPEDTAVYYCNALVYDEYGYYHYYLRNGGYYWGQGTQVTVSS	high polyreactivity
QVQLVESGGGLVQAGGSLRLSCAASGSTFPFNAMGWYRQAPGKERELVAGIRSRGGSTYYADSVKGRFTISRDNAKNTVYLQMNSLKPEDTAVYYCAKVYKDRDDLFYYWGQGTQVTVSS	low polyreactivity
QVQLVESGGGLVQAGGSLRLSCAASGRTFSVNDMGWYRQAPGKERELVAAISFSGGSTYYADSVKGRFTISRDNAKNTVYLQMNSLKPEDTAVYYCAAEAYPVRRLNLPGYDYWGQGTQVTVSS	high polyreactivity
QVQLVESGGGLVQAGGSLRLSCAASGFIFGGNAMGWYRQAPGKERELVAAITARSGSTYYADSVKGRFTISRDNAKNTVYLQMNSLKPEDTAVYYCATPVYRSTYEYDYWGQGTQVTVSS	low polyreactivity
QVQLVESGGGLVQAGGSLRLSCAASGFTFLFNTMGWYRQAPGKERELVAGISRGGSTTYADSVKGRFTISRDNAKNTVYLQMNSLKPEDTAVYYCAARTRYNWRGYDYWGQGTQVTVSS	high polyreactivity

Sequence	polyreactivity (PSR sort gate)
QVQLVESGGGLVQAGGSLRFSCAASGFTFSVYAMGWYRQAPGTEMELVAAIHWSGGSTYYADSVKGRFTISRDNAKNTVYLQMNSLKPEDTAVYYCNTLYWYTRHVVDYWGQGTQVTVSS	high polyreactivity
QVQLVESGGGLVQAGGSLRLSCAASGSTLATYTMGWYRQAPGKERELVAAISFGGSTYYADSVKGRFTISRDNAKNTVYLQMNSLKPEDTAVYYCAVYGDSYWGAYYYSDGYWGQGSQVTVSS	low polyreactivity
QVQLVESGGGLVQAGGSLRLSCAASGRIFDPNAMGWYRQAPGKERELVAAISSRSGSTFYADSVKGRFTISRDNAKNTVYLQMNSLKPEDTAVYYCAAVYRFYKHNYWGQGTQVTVSS	high polyreactivity
QVQLVESGGGLVQAGGSLRLSCAASGLIFRVNAMGWYRQAPGKERELVADINSGGGTSYADSVKGRFTISRDNAKNTVYLQMNSLKPEDTAVYYCAAAWWPYSYPTYYSQYDYWGQGTQVTVSS	low polyreactivity
QVQLVESGGGLVQAGGSLRLSCAASGGIFRYYAMGWSRQAPGKEMELVAAITRGGRTSYADSVKGRFTISRDNAKNSVYLQMNSLKPEDTAVYYCNAKRPYQEHNSYGYWGQGTLVTVSS	high polyreactivity
QVQLVESGGGLVPAGGSLRLSCAASGFTFDSYAMGWYRQAPGKERELVAAMSYRGGTTYYADSVKGRFTISRDNAKNTVYLQMNSLKPEDTAVYYCTRLWKYGYNYWGQGTQVTVSS	high polyreactivity
QVQLVESGGGLVQAGGSLRLSCVASGSIFRGNAMGWYRQAPGKERELVASISKGGGSTYYADSVKGRFIISRDNAKNTVYLQIHSLKPEDTAVYYCYKDYDRRDFYYWGLGTQVTVSS	low polyreactivity
QVQLVESGGRLVQAGGSLRLSCAASGRTFVSYAMGWYRQAPGKERELVATITGSTGGTYYADSVKGRFTISRDNAKNTVYLQMNSLKPEDTAVYYCNKDYYYNPGNVASGYDYWGHGTQVTVSS	low polyreactivity
QVQLVESGGGLVQAGGSLRLSCAASGRIFYIYAMGWYRQAPGKERELVATISVSGGRTYYADSVKGRFTISRDNAKNTVYLHMNSLKPEDTAVYYCAKEGRFNIHKWYDYWGQGTQVTVSS	low polyreactivity
QVQLVESGGALVQAGGSLRLSLADSGMTFSQNAMGWYRQAPGKERELVAAISSSGTSTYYADSVKGRFTISRDNAKNTVYLQMNSLKPEDTAVYYCNAPPGTFQWQGHSDYWGQGTQVTVSS	low polyreactivity
QVQLVEAGGCLVQAGGSLRLSCAASGRIFRFYTMGWYRQAPGNERELVAAIRYSSVSTYYADSVKGRFTISRDNAKNTVYLQMNSLKPEDTAVYYCDAVHRSYVKTYNYWGLGTQVTVSS	high polyreactivity
QVQLVESGVGLVQAGGSLRLICAASGSTFQPNVMGWYRQAPGKERELDAAIRGSSGNTYYADSVKGRFTISRDHAKNTVYLQMNSLKPEDTAVYYCAALFLFKTSSPYRYYYWGQGTQVTVSS	high polyreactivity
QVQLVESGGGLVQAGGSLRFSCAASRFNFYDYVMGWYRQAPGKYRELVAAISSNGGSTYYADSVKGRFTISRDNAKNTVYFQMYSLKPEDTAVYYCAVTENSKSNKIRPDQGDYWGQGTQVTVSS	high polyreactivity
QVQLVETAAGLVQAGGSLRLSCAASGSIYYSYAMGGYRQAPGKERELVAAITDSGDSTYYADSVKGRFTISRDNAKNTVYLQMNSLKPEDTAVYYCAAGFYPYYYWGLGTQVTVSS	low polyreactivity
QVQLVESGGGLVQAGGSLRLSCAASGFTFTKYAMGWYRQAPGKERELVAAISGRGGSTYYADSVKGRFTISRDNAKNTVYLQMNRLKPEDTAVYYCAKYLYTVAGYNYWGQGTQVTVSS	high polyreactivity
QVQLVESGGGLVQAGGSLRLSCAASGSTFSGYAMGWYRQAPGKERELVAAITSGGITNYADSVKGRFTISLDNAKNTLYLQMNSLKPEDTAVYYCAKSVSGIGVGYDYWGQGTQVTVSS	low polyreactivity
QVQLVESGGGLVQAGGSLRLSCAASGSTFVSYTMGWYRQAPGKERELVAAISYNGARTYYADSVKGRFTISRDNAKNTVYLQMISLKPEDTAVYDCARRYYSQYDYWGQGTQVTVSS	high polyreactivity
QVQLVESGGGLVQAGGSLRLICAASGRTFSSYAMGWYRQAPGKERELVAALSRRGGSTYYADSVKGRFTISRDNAKNTVYLQMNSLNPEDTAVYYCAADVYKQYGYYYWGQGTQVTVSS	high polyreactivity
QVQLVESGGGLVQAGGSLSLSCAASGRTFLRYAMGWYRQAPGKERELVAAISWSGGRTYYADSVKGRFTISRDNAKNSVYLQMNSLKAEDTAVYYCNNVVLYGALYYYCGQGTQVTVSS	high polyreactivity
QVQLVESGGGIVQAGGSLRLSCAASGNIFSYKAMGWYRQAPRTERELVDAISRSGGSTYYADSVKGRFTISRDNAKNTVYLQMNSLKPEDTAVYYCAADWRGRKYDYWGQGTQVTVSS	high polyreactivity
QVQLVESVGGLVQAGGSLRLSCAASGFIFKSYSMGWYRQAPGKERELVAAISGRGGSTYYADSVKGRFTISRDNAKNTVYLQMNSLKPEDTAVYYCNVVPSTYYQYDYWGQGTQVTVSS	high polyreactivity

From the nanobody polyreactivity screen of Harvey et al. (2022)
